Reference: the supplement of paper PMC7877785
± gives the uncertainty stated by the source.

Test: self-splicing fitness, log relative to wild type (ln ratio); higher = more splicing; Tetrahymena group I intron in knt gene, E. coli kanamycin selection, DiMSum; sequences stand for … in CUCUCU…GGAGGGAAAAGUUAUCAGGCAUGCACCUGGUAGCUAGUCUUUAAACCAAUAGAUUGCAUCGGUUUAAAAGGCAAGACCGUCAAAUUGCGGGAAAGGGGUCAACAGCCGUUCAGUACCAAGUCUCAGGGGAAACUUUGAGAUGGCCUUGCAAAGGGUAUGGUAAUAAGCUGACGGACAUGGUCCUAACCACGCAGCCAAGUCCUAAGUCAACAGAUCUUCUGUUGAUAUGGAUGCAGUUCACAGACUAAAUGUCGGUCGGGGAAGAUGUAUUCUUCUCAUAAGAUAUAGUCGGACCUCUCCUUAAUGGGAGCUAGCGGAUGAAGUGAUGCAACACUGGAGCCGCUGGGAACUAAUUUGUAUGCGAAAGUAUAUUGAUUAGUUUUGGAGUACUCGUGGUCG
In short: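 Fitness was computed with DiMSum as the error-weighted combination of replicate fold changes, kanamycin versus none, each normalised to wild type. The library randomised all eight intron nucleotides of the P1ex region, with the intron placed in the knt kanamycin-resistance gene on pET-22b(+) in E. coli BL21(DE3). Six replicate transformations were grown overnight at 37°C or 30°C on LB agar with or without 25 μg/mL kanamycin, plus 100 μg/mL carbenicillin, 50 μM IPTG and 0.2% rhamnose. Pooled colonies were amplicon-sequenced on an Illumina HiSeq 2500.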

Row | Sequence | self-splicing fitness (ln) (30 °C) | self-splicing fitness (ln) (37 °C)
1 | AUCGAGCAAUAUUACGCACA | -2.46 ± 0.16 | -0.76 ± 0.11
2 | AAGUAGCAAUAUUACGAGUU | -1.86 ± 0.098 | -0.204 ± 0.096
3 | CAGUAGCAAUAUUACGAGUA | -2.34 ± 0.21 | -2.57 ± 0.31
4 | AAGUAGCAAUAUUACGACCA | -1.55 ± 0.16 | 0.396 ± 0.21
5 | CACAAGCAAUAUUACGUAGG | -1.23 ± 0.056 | -0.693 ± 0.082
6 | GAACAGCAAUAUUACGGACG | -1.88 ± 0.11 | -0.3 ± 0.12
7 | AGGUAGCAAUAUUACGAAUA | -2.28 ± 0.026 | -1.51 ± 0.037
8 | GAAAAGCAAUAUUACGUGCA | -0.843 ± 0.073 | -0.0478 ± 0.085
9 | ACGUAGCAAUAUUACGCGAU | -3.01 ± 0.14 | -1.5 ± 0.11
10 | CGAAAGCAAUAUUACGCGUU | -4 ± 0.18 | -2.85 ± 0.2
11 | UCUCAGCAAUAUUACGACCC |  | -1.98 ± 0.23
12 | CGUAAGCAAUAUUACGCAGU | -3.05 ± 0.2 | -2.64 ± 0.34
13 | UUUAAGCAAUAUUACGCAGU | -2.7 ± 0.22 | -2.36 ± 0.27
14 | AGGCAGCAAUAUUACGUGUA | -2.19 ± 0.1 | -1.09 ± 0.11
15 | CGACAGCAAUAUUACGAGUG | -1.06 ± 0.046 | -0.592 ± 0.063
16 | CGACAGCAAUAUUACGGAGU | -3.91 ± 0.2 | -2.53 ± 0.14
17 | UUUCAGCAAUAUUACGCGAG | -1.16 ± 0.14 | 0.301 ± 0.15
18 | ACCAAGCAAUAUUACGAUGU | -1.7 ± 0.057 | -1.03 ± 0.073
19 | GUAUAGCAAUAUUACGAUCA | -1.33 ± 0.2 | -0.768 ± 0.16
20 | CCAGAGCAAUAUUACGCUUC | -3.48 ± 0.42 | 
21 | GCAAAGCAAUAUUACGGUUU | -1.26 ± 0.063 | -0.4 ± 0.082
22 | GUGGAGCAAUAUUACGGUGG | -3.76 ± 0.23 | -2.5 ± 0.23
23 | UGCUAGCAAUAUUACGACCG | -0.534 ± 0.17 | -0.458 ± 0.19
24 | UGAGAGCAAUAUUACGUGAA | -4.19 ± 0.33 | -2.35 ± 0.27
25 | CCCGAGCAAUAUUACGAACA | -2.93 ± 0.3 | -2.51 ± 0.35
26 | UCGUAGCAAUAUUACGCGGC |  | -2.15 ± 0.46

Row | Sequence | self-splicing fitness (ln) (30 °C) | self-splicing fitness (ln) (37 °C)
27 | CGAUAGCAAUAUUACGGCAG | -0.958 ± 0.087 | -0.344 ± 0.12
28 | GCUUAGCAAUAUUACGUACU | -0.712 ± 0.1 | -0.0558 ± 0.13
29 | AAACAGCAAUAUUACGGGCC | -3.42 ± 0.17 | -2.29 ± 0.16
30 | CAUAAGCAAUAUUACGACGG | -0.41 ± 0.072 | -0.00998 ± 0.088
31 | GGGUAGCAAUAUUACGCGAA | -0.995 ± 0.16 | -0.21 ± 0.13
32 | UGCGAGCAAUAUUACGAAAC | -2.99 ± 0.17 | -3.8 ± 0.34
33 | GGGUAGCAAUAUUACGAUAA | -1.67 ± 0.13 | 0.147 ± 0.16
34 | AAAAAGCAAUAUUACGAGGG | -3.5 ± 0.18 | -1.84 ± 0.16
35 | CCCGAGCAAUAUUACGGCAU | -3.28 ± 0.37 | -1.85 ± 0.32
36 | AUGAAGCAAUAUUACGCGGC | -2.46 ± 0.31 | -2.26 ± 0.29
37 | GGCUAGCAAUAUUACGGGCA | 0.122 ± 0.082 | 0.0658 ± 0.092
38 | GAGCAGCAAUAUUACGGGGA | -2.84 ± 0.21 | -2.05 ± 0.14
39 | UGCCAGCAAUAUUACGCGUC | -2.05 ± 0.12 | -1.8 ± 0.15
40 | CGUGAGCAAUAUUACGCACG | -3.19 ± 0.29 | -2.94 ± 0.47
41 | CGCUAGCAAUAUUACGCUUU | -3.13 ± 0.18 | -2.32 ± 0.2
42 | CCGCAGCAAUAUUACGGGCU | -3.56 ± 0.18 | -3.05 ± 0.22
43 | CCCUAGCAAUAUUACGUCCU | -4.12 ± 0.37 | -2.06 ± 0.28
44 | CUGGAGCAAUAUUACGGCUC | -2.58 ± 0.3 | 
45 | UUACAGCAAUAUUACGACCC | -2.6 ± 0.32 | -2.14 ± 0.44
46 | AUCAAGCAAUAUUACGCCUG | -1.61 ± 0.12 | -0.797 ± 0.16
47 | CCGAAGCAAUAUUACGCGAG | -2.65 ± 0.11 | -2.08 ± 0.15
48 | GCUCAGCAAUAUUACGGCAC | -1.11 ± 0.21 | -0.084 ± 0.21
49 | GUUUAGCAAUAUUACGUUCC | -0.783 ± 0.26 | 
50 | UGAAAGCAAUAUUACGGGAG | -1.49 ± 0.12 | -0.515 ± 0.12
51 | AAUAAGCAAUAUUACGUAUG | -2.2 ± 0.11 | -0.966 ± 0.12
52 | GCCAAGCAAUAUUACGCGUA | -0.871 ± 0.089 | -0.13 ± 0.089

Row | Sequence | self-splicing fitness (ln) (30 °C) | self-splicing fitness (ln) (37 °C)
53 | CCAAAGCAAUAUUACGACAC |  | -3.02 ± 0.25
54 | UUACAGCAAUAUUACGUGCG | -0.895 ± 0.092 | -0.0854 ± 0.12
55 | CGAAAGCAAUAUUACGAAAG | -0.96 ± 0.073 | -0.475 ± 0.11
56 | GUACAGCAAUAUUACGAGGU | -4.68 ± 0.29 | -1.97 ± 0.16
57 | AUUUAGCAAUAUUACGCCCG | -1.48 ± 0.24 | -1.15 ± 0.28
58 | UCCAAGCAAUAUUACGCUUG | -3.72 ± 0.17 | -2.11 ± 0.28
59 | UGUAAGCAAUAUUACGGCCA | -0.0492 ± 0.076 | -0.0953 ± 0.12
60 | UAUGAGCAAUAUUACGCUCA | -2.45 ± 0.31 | -2.73 ± 0.27
61 | CUUAAGCAAUAUUACGGGUA | -2.7 ± 0.22 | -2.75 ± 0.38
62 | CUAGAGCAAUAUUACGUACC | -4.52 ± 0.24 | -3.09 ± 0.35
63 | CGCCAGCAAUAUUACGCUGU | -3.38 ± 0.29 | -2.69 ± 0.39
64 | UACAAGCAAUAUUACGGUUG | -2.1 ± 0.11 | -1.91 ± 0.15
65 | AGCAAGCAAUAUUACGUUAU | -2.78 ± 0.11 | -1.54 ± 0.12
66 | ACCAAGCAAUAUUACGCCCA | -1.06 ± 0.13 | -0.545 ± 0.17
67 | GGCUAGCAAUAUUACGUAGU | -3.29 ± 0.17 | -2.04 ± 0.2
68 | AAGCAGCAAUAUUACGGCAA | -0.0737 ± 0.06 | 0.139 ± 0.081
69 | UGGUAGCAAUAUUACGUCUG | -0.683 ± 0.11 | 0.409 ± 0.17
70 | GGCCAGCAAUAUUACGUCGC | -1.17 ± 0.11 | -0.0357 ± 0.11
71 | AUCAAGCAAUAUUACGUUGU | -3.46 ± 0.17 | -1.92 ± 0.12
72 | CUACAGCAAUAUUACGAGUU | -4.98 ± 0.2 | -2.76 ± 0.17
73 | CCUCAGCAAUAUUACGAGAG | -2.75 ± 0.13 | -1.47 ± 0.1
74 | UUGAAGCAAUAUUACGAGAU | -3.15 ± 0.18 | -2.87 ± 0.23
75 | UUCUAGCAAUAUUACGUUGA | -3.03 ± 0.22 | -1.47 ± 0.18
76 | UGGGAGCAAUAUUACGUUUG | -3.75 ± 0.27 | -2.14 ± 0.27
77 | GCUCAGCAAUAUUACGACCC | -0.644 ± 0.14 | 0.378 ± 0.19
